Target: T1, KaiC of unphosphorylated initial condition (Synechococcus elongatus) (UniProt Q79PF4)
T1 sequence (chain, unphosphorylated at the start of the incubation): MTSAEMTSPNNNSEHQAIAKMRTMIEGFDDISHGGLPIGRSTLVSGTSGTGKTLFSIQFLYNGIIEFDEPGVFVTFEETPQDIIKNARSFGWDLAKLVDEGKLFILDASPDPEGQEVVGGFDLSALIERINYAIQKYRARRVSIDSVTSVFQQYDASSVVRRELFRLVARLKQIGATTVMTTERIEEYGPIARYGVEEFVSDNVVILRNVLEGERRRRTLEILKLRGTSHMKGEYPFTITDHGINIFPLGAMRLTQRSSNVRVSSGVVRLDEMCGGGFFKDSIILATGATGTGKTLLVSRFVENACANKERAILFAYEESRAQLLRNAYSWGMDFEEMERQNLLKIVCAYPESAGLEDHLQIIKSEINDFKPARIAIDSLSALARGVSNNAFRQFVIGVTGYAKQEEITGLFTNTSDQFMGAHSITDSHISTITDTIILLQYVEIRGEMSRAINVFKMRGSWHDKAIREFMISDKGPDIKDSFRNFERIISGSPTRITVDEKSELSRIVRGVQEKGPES

- half-maximum concentration of KaiA for the phosphorylation of KaiC (3.5 µM) at 16 hr, 30°C (SDS-PAGE densitometry, sigmoid fit), against that for the highly phosphorylated initial condition: 5 fold
B1: wild type KaiA (natural protein)
chain: MLSQIAICIWVESTAILQDCQRALSADRYQLQVCESGEMLLEYAQTHRDQIDCLILVAANPSFRAVVQQLCFEGVVVPAIVVGDRDSEDPDEPAKEQLYHSAELHLGIHQLEQLPYQVDAALAEFLRLAPVETMADHIMLMGANHDPELSSQQRDLAQRLQERLGYLGVYYKRDPDRFLRNLPAYESQKLHQAMQTSYREIVLSYFSPNSNLNQSIDNFVNMAFFADVPVTKVVEIHMELMDEFAKKLRVEGRSEDILLDYRLTLIDVIAHLCEMYRRSIPRET

Source: PMC3416856
